Measurements taken from article PMC10104900 (The Journal of Clinical Investigation, 2023).
Where two headings read alike, the source gives them in different places.

Columns and labels:
[1] = biological target: T1, SARS-CoV-2 WT RBD (SARS-CoV-2 WT (Wuhan-Hu-1), UniProt P0DTC2); experiment: ELISA; settings: both partners purified
[2] = biological target: T1, SARS-CoV-2 WT RBD
[3] = biological target: spike BA.1-6P (SARS-CoV-2, Omicron BA.1, strain)
[4] = biological target: recombinant FL spike WT-6P (SARS-CoV-2 WT (Wuhan-Hu-1), UniProt P0DTC2, stabilised, biotin (EZ-Link Sulfo-NHS-Biotin) in the BLI experiments)
[5] = biological target: recombinant FL spike WT-2P (SARS-CoV-2 WT (Wuhan-Hu-1), stabilised, biotin (EZ-Link Sulfo-NHS-Biotin) in the BLI experiments)

Row | Binder | binding result [1] | binding result [2] | binding result [3] | binding result [4] | binding result [5]
1 | REGN10933 (Regeneron) (antibody, V domains shown, source: HEK293T, transiently cotransfected, purified (protein A-agarose beads); copies: 2 + 2) VH: QVQLVESGGGLVKPGGSLRLSCAASGFTFSDYYMSWIRQAPGKGLEWVSYITYSGSTIYYADSVKGRFTISRDNAKSSLYLQMNSLRAEDTAVYYCARDRGTTMVPFDYWGQGTLVTVSS VL: DIQMTQSPSSLSASVGDRVTITCQASQDITNYLNWYQQKPGKAPKLLIYAASNLETGVPSRFSGSGSGTDFTFTISGLQPEDIATYYCQQYDNLPLTFGGGTKVEIK | binds | – | – | – | –
2 | S451-1140 (antibody, V domains shown) VH: EVQLVESGGGLVPPGGSLRLSCAASGFIFSNYAMTWVRQAPGKGLEWVSAISGGGGSTDYADSVKGRFTISRDNSKNTLYLQMNSLRAEDTAVYYCAKDLFGSGWSLFDNWGQGTLVTVS VL: not shown | – | binds | binds | binds | binds
3 | LY-CoV555 (Eli Lilly) (antibody, V domains shown) VH: QVQLVQSGAEVKKPGSSVKVSCKASGGTFSNYAISWVRQAPGQGLEWMGRIIPILGIANYAQKFQGRVTITADKSTSTAYMELSSLRSEDTAVYYCARGYYEARHYYYYYAMDVWGQGTAVTVSS VL: not shown | binds | – | – | – | –
4 | S728-1157 IgG (antibody, V domains shown, copies: 2 + 2) VH: EVQLVESGGGLVQPGGSLRLSCAASGLLVSRNYMNWVRQAPGKGLEWVSIIYSGGSTFYADSVEGRFTISRDESKNTLYLQMNSLRTDDTAVYYCARDLSDYGGIDCWGQGTLVTVSS VL: YELTQPLSVSMALGQTARISCGGDNVGSQNVHWYQQRPGQAPVLVIYRDSNRPSGIPERFSGSKSGNTATLTISRAQAGDEADYYCQVWDSSTVAFGGGTKLTVL | binds | – | – | – | –
5 | S626-161 (antibody, V domains shown) VH: QLQLQESGPGLVKPSEALSLTCTVSGGSISTSNYYWGWIRQPPGKGLEWIGSIYYRGGTHYNPSLKTRVTISVDTSKNQFSLKLSSVTAADTAVYYCARHTYFYDIVGAAVWEPFDIWGQGTMVTVSS VL: not shown | – | binds | binds | binds | binds
